Laboratory results taken from article doi:10.1101/487454.

Target: Full-length human KLHL41 GST fusion protein (human) (UniProt O60662)
Assay: AlphaScreen or HTRF

UniProt O60662, sequence (O60662 whole entry, the tested form may be a part): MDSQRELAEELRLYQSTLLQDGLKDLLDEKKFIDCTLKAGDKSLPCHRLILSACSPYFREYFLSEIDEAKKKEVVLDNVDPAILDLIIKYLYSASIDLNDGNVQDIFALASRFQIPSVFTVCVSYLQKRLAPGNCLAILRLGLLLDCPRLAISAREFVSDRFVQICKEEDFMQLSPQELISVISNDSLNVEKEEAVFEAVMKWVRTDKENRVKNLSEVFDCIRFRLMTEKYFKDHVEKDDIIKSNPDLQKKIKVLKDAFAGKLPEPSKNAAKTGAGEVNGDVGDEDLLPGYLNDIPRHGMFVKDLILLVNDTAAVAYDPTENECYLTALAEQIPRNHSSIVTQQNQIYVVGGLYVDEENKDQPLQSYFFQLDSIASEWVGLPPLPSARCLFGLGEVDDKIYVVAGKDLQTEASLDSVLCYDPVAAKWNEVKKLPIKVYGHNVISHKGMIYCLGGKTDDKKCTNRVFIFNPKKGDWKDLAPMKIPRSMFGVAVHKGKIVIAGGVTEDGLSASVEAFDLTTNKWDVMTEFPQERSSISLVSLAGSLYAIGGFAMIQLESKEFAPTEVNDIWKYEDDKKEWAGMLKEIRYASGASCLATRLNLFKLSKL

## Human NEB (aa 5647-5849) MBP-HA fusion protein (from UniProt P20929 5647-5849) (domain or fragment)
  delta F% (HTRF, 10nM KLHL41 and 100nM NEB): 950%
